Tested on: Escherichia coli TOP10
Assay: shrunken log2 fold change of peptide-encoding DNA abundance (4.5 h post-induction vs induction); higher = less antimicrobial activity (less host growth inhibition)
Conditions: time post-induction: 4.5 h; library: site-saturation at positions 5, 18, 19, 20
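Also: peptides expressed intracellularly from a pBAD plasmid library in pooled LB shake-flask culture, induced with 0.3% L-arabinose, DNA abundance read by NGS, three biological replicates, DESeq2 with apeglm shrinkage.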

Row | Sequence | shrunken log2 fold change
1 | RRIRQRPPRLPRPRPRPFQSPRP | -0.0102
2 | RRIRQRPPRLPRPRPRPFSAPRP | -0.0161
3 | RRIRQRPPRLPRPRPRPFWDPRP | 0.213
4 | RRIRQRPPRLPRPRPRPFYTPRP | -0.589
5 | RRIRQRPPRLPRPRPRPGAWPRP | 0.256
6 | RRIRQRPPRLPRPRPRPGCGPRP | 0.442
7 | RRIRQRPPRLPRPRPRPGCWPRP | 0.548
8 | RRIRQRPPRLPRPRPRPGDIPRP | -0.0112
9 | RRIRQRPPRLPRPRPRPGDPPRP | 0.0572
10 | RRIRQRPPRLPRPRPRPGDQPRP | -0.0566
11 | RRIRQRPPRLPRPRPRPGDVPRP | -0.222
12 | RRIRQRPPRLPRPRPRPGECPRP | -0.0823
13 | RRIRQRPPRLPRPRPRPGEVPRP | -0.102
14 | RRIRQRPPRLPRPRPRPGFPPRP | -0.0539
15 | RRIRQRPPRLPRPRPRPGFWPRP | 0.353
16 | RRIRQRPPRLPRPRPRPGGHPRP | 0.201
17 | RRIRQRPPRLPRPRPRPGGIPRP | 0.0484
18 | RRIRQRPPRLPRPRPRPGGYPRP | 0.144
19 | RRIRQRPPRLPRPRPRPGHTPRP | 0.0169
20 | RRIRQRPPRLPRPRPRPGIGPRP | -0.005
21 | RRIRQRPPRLPRPRPRPGIKPRP | -1.89e-05
22 | RRIRQRPPRLPRPRPRPGKMPRP | 0.0812
23 | RRIRQRPPRLPRPRPRPGMDPRP | 0.342
24 | RRIRQRPPRLPRPRPRPGMNPRP | 0.0205
25 | RRIRQRPPRLPRPRPRPGNPPRP | -0.132

Row | Sequence | shrunken log2 fold change
26 | RRIRQRPPRLPRPRPRPGNRPRP | -0.0286
27 | RRIRQRPPRLPRPRPRPGPCPRP | -0.0469
28 | RRIRQRPPRLPRPRPRPGQIPRP | -0.226
29 | RRIRQRPPRLPRPRPRPGSEPRP | 0.0985
30 | RRIRQRPPRLPRPRPRPGSLPRP | 0.143
31 | RRIRQRPPRLPRPRPRPGTFPRP | -0.499
32 | RRIRQRPPRLPRPRPRPGTMPRP | 0.00897
33 | RRIRQRPPRLPRPRPRPGVCPRP | -0.126
34 | RRIRQRPPRLPRPRPRPGVMPRP | -0.0819
35 | RRIRQRPPRLPRPRPRPGWLPRP | 0.193
36 | RRIRQRPPRLPRPRPRPHAEPRP | -0.0176
37 | RRIRQRPPRLPRPRPRPHAHPRP | 0.000761
38 | RRIRQRPPRLPRPRPRPHCAPRP | 0.0396
39 | RRIRQRPPRLPRPRPRPHCRPRP | 0.0105
40 | RRIRQRPPRLPRPRPRPHDLPRP | -0.046
41 | RRIRQRPPRLPRPRPRPHHDPRP | -0.000328
42 | RRIRQRPPRLPRPRPRPHIDPRP | -0.224
43 | RRIRQRPPRLPRPRPRPHIMPRP | -0.669
44 | RRIRQRPPRLPRPRPRPHIYPRP | -0.0139
45 | RRIRQRPPRLPRPRPRPHKCPRP | -0.364
46 | RRIRQRPPRLPRPRPRPHKVPRP | -0.481
47 | RRIRQRPPRLPRPRPRPHLCPRP | 0.0292
48 | RRIRQRPPRLPRPRPRPHLGPRP | -0.00552
49 | RRIRQRPPRLPRPRPRPHLHPRP | -0.177
50 | RRIRQRPPRLPRPRPRPHLWPRP | 0.0824

Row | Sequence | shrunken log2 fold change
51 | RRIRQRPPRLPRPRPRPHLYPRP | -0.129
52 | RRIRQRPPRLPRPRPRPHMWPRP | -0.129
53 | RRIRQRPPRLPRPRPRPHNCPRP | 0.113
54 | RRIRQRPPRLPRPRPRPHNWPRP | -0.311
55 | RRIRQRPPRLPRPRPRPHPLPRP | -0.0478
56 | RRIRQRPPRLPRPRPRPHQGPRP | 0.0866
57 | RRIRQRPPRLPRPRPRPHQVPRP | -0.253
58 | RRIRQRPPRLPRPRPRPHRAPRP | -0.137
59 | RRIRQRPPRLPRPRPRPHRWPRP | 0.057
60 | RRIRQRPPRLPRPRPRPHSQPRP | 0.0419
61 | RRIRQRPPRLPRPRPRPHTSPRP | 0.0894
62 | RRIRQRPPRLPRPRPRPHVEPRP | -0.00703
63 | RRIRQRPPRLPRPRPRPHVMPRP | -0.444
64 | RRIRQRPPRLPRPRPRPHYDPRP | -0.295
65 | RRIRQRPPRLPRPRPRPHYSPRP | -0.0998
66 | RRIRQRPPRLPRPRPRPIAVPRP | -0.038
67 | RRIRQRPPRLPRPRPRPIDFPRP | -0.0381
68 | RRIRQRPPRLPRPRPRPIDNPRP | -0.36
69 | RRIRQRPPRLPRPRPRPIDTPRP | -0.216
70 | RRIRQRPPRLPRPRPRPIEGPRP | 0.0763
71 | RRIRQRPPRLPRPRPRPIESPRP | -0.181
72 | RRIRQRPPRLPRPRPRPIFAPRP | 0.146
73 | RRIRQRPPRLPRPRPRPIFDPRP | -0.0877
74 | RRIRQRPPRLPRPRPRPIGFPRP | -0.0702
75 | RRIRQRPPRLPRPRPRPIGNPRP | 0.0843

Row | Sequence | shrunken log2 fold change
76 | RRIRQRPPRLPRPRPRPIGWPRP | 0.256
77 | RRIRQRPPRLPRPRPRPIIKPRP | -0.111
78 | RRIRQRPPRLPRPRPRPILEPRP | -0.536
79 | RRIRQRPPRLPRPRPRPIPSPRP | -0.0138
80 | RRIRQRPPRLPRPRPRPIQKPRP | -0.0187
81 | RRIRQRPPRLPRPRPRPIQLPRP | -0.333
82 | RRIRQRPPRLPRPRPRPIVIPRP | 0.0668
83 | RRIRQRPPRLPRPRPRPIWIPRP | -0.206
84 | RRIRQRPPRLPRPRPRPIWWPRP | 0.127
85 | RRIRQRPPRLPRPRPRPIYCPRP | -0.0315
86 | RRIRQRPPRLPRPRPRPKAGPRP | 0.0875
87 | RRIRQRPPRLPRPRPRPKAVPRP | -0.00151
88 | RRIRQRPPRLPRPRPRPKCEPRP | 0.0276
89 | RRIRQRPPRLPRPRPRPKCMPRP | -0.551
90 | RRIRQRPPRLPRPRPRPKCQPRP | 0.0473
91 | RRIRQRPPRLPRPRPRPKDTPRP | -0.0272
92 | RRIRQRPPRLPRPRPRPKECPRP | -0.0193
93 | RRIRQRPPRLPRPRPRPKGCPRP | -0.0208
94 | RRIRQRPPRLPRPRPRPKHYPRP | -0.223
95 | RRIRQRPPRLPRPRPRPKIYPRP | -0.277
96 | RRIRQRPPRLPRPRPRPKKHPRP | -0.236
97 | RRIRQRPPRLPRPRPRPKKPPRP | 0.0619
98 | RRIRQRPPRLPRPRPRPKKSPRP | -0.197
99 | RRIRQRPPRLPRPRPRPKLDPRP | 0.168
100 | RRIRQRPPRLPRPRPRPKLKPRP | -0.0236

Row | Sequence | shrunken log2 fold change
101 | RRIRQRPPRLPRPRPRPKLRPRP | -0.0665
102 | RRIRQRPPRLPRPRPRPKMPPRP | -0.0283
103 | RRIRQRPPRLPRPRPRPKMWPRP | 1
104 | RRIRQRPPRLPRPRPRPKPCPRP | -0.273
105 | RRIRQRPPRLPRPRPRPKPEPRP | -0.0759
106 | RRIRQRPPRLPRPRPRPKPGPRP | 0.285
107 | RRIRQRPPRLPRPRPRPKPSPRP | 0.159
108 | RRIRQRPPRLPRPRPRPKPVPRP | 0.407
109 | RRIRQRPPRLPRPRPRPKPYPRP | -0.074
110 | RRIRQRPPRLPRPRPRPKQEPRP | -0.0419
111 | RRIRQRPPRLPRPRPRPKQKPRP | -0.0585
112 | RRIRQRPPRLPRPRPRPKRSPRP | 0.0578
113 | RRIRQRPPRLPRPRPRPKSGPRP | 0.631
114 | RRIRQRPPRLPRPRPRPKTKPRP | -0.254
115 | RRIRQRPPRLPRPRPRPKTSPRP | -0.15
116 | RRIRQRPPRLPRPRPRPKVAPRP | -0.00277
117 | RRIRQRPPRLPRPRPRPKVNPRP | -0.0444
118 | RRIRQRPPRLPRPRPRPKWCPRP | -0.0936
119 | RRIRQRPPRLPRPRPRPKWNPRP | -0.216
120 | RRIRQRPPRLPRPRPRPLAFPRP | -0.232
121 | RRIRQRPPRLPRPRPRPLCKPRP | -0.406
122 | RRIRQRPPRLPRPRPRPLCPPRP | -0.334
123 | RRIRQRPPRLPRPRPRPLCWPRP | -0.0481
124 | RRIRQRPPRLPRPRPRPLDPPRP | -0.408
125 | RRIRQRPPRLPRPRPRPLETPRP | 0.181

Row | Sequence | shrunken log2 fold change
126 | RRIRQRPPRLPRPRPRPLGCPRP | -0.0282
127 | RRIRQRPPRLPRPRPRPLGHPRP | 0.0124
128 | RRIRQRPPRLPRPRPRPLGWPRP | 0.8
129 | RRIRQRPPRLPRPRPRPLISPRP | -0.173
130 | RRIRQRPPRLPRPRPRPLKFPRP | -0.27
131 | RRIRQRPPRLPRPRPRPLLFPRP | -0.0219
132 | RRIRQRPPRLPRPRPRPLLPPRP | 0.0127
133 | RRIRQRPPRLPRPRPRPLLSPRP | 0.00947
134 | RRIRQRPPRLPRPRPRPLMSPRP | -0.0453
135 | RRIRQRPPRLPRPRPRPLNRPRP | -0.191
136 | RRIRQRPPRLPRPRPRPLNTPRP | -0.937
137 | RRIRQRPPRLPRPRPRPLNYPRP | -0.548
138 | RRIRQRPPRLPRPRPRPLQFPRP | -0.168
139 | RRIRQRPPRLPRPRPRPLQVPRP | -0.0738
140 | RRIRQRPPRLPRPRPRPLSEPRP | 0.0232
141 | RRIRQRPPRLPRPRPRPLSQPRP | -0.0534
142 | RRIRQRPPRLPRPRPRPLSRPRP | -0.0591
143 | RRIRQRPPRLPRPRPRPLSYPRP | 0.121
144 | RRIRQRPPRLPRPRPRPLWHPRP | -0.107
145 | RRIRQRPPRLPRPRPRPLYFPRP | -0.623
146 | RRIRQRPPRLPRPRPRPLYPPRP | -0.228
147 | RRIRQRPPRLPRPRPRPLYRPRP | 0.0401
148 | RRIRQRPPRLPRPRPRPMAHPRP | 0.00446
149 | RRIRQRPPRLPRPRPRPMCYPRP | -0.01
150 | RRIRQRPPRLPRPRPRPMDGPRP | -0.199

Source: the supplement of paper PMC9112550, “Optimization of the antimicrobial peptide Bac7 by deep mutational scanning” (BMC Biology, 2022)
